Experimental data from publication PMC5818262 (ACS chemical biology, 2012).
Read-outs that look alike come from different tables or passages of the source.

Assays:
Cit2 = experiment: steady-state initial rates, Hill equation fit; type: biochemical, Streptantibioticus cattleyicolor; conditions: read-out: K0.5
Cit1 = experiment: steady-state initial rates, Hill equation fit; type: biochemical, Streptantibioticus cattleyicolor; conditions: read-out: K0.5
ACS (S. cattleya) = ACS (S. cattleya) (Streptantibioticus cattleyicolor, UniProt F8K1P4); type: biochemical
AckA (S. cattleya) = AckA (S. cattleya) (Streptantibioticus cattleyicolor, UniProt G8X369); type: biochemical
GltA = GltA (Escherichia coli, UniProt P0ABH7); experiment: steady-state initial rates, Hill equation fit; type: biochemical; conditions: read-out: K0.5
[1] = test system: CC(=O)SCCNC(=O)CCNC(=O)[C@H](O)C(C)(C)COP(=O)(O)OP(=O)(O)OC[C@H]1O[C@@H](n2cnc3c(N)ncnc32)[C@H](O)[C@@H]1OP(=O)(O)O; experiment: steady-state initial rates, Hill equation fit; type: biochemical, Escherichia coli
[2] = substrate: CC(C)(COP(=O)(O)OP(=O)(O)OC[C@H]1O[C@@H](n2cnc3c(N)ncnc32)[C@H](O)[C@@H]1OP(=O)(O)O)[C@@H](O)C(=O)NCCC(=O)NCCSC(=O)CF; experiment: steady-state initial rates, Hill equation fit; type: biochemical, Streptomyces coelicolor
[3] = substrate: CC(=O)SCCNC(=O)CCNC(=O)[C@H](O)C(C)(C)COP(=O)(O)OP(=O)(O)OC[C@H]1O[C@@H](n2cnc3c(N)ncnc32)[C@H](O)[C@@H]1OP(=O)(O)O; experiment: steady-state initial rates, Hill equation fit; type: biochemical, Streptomyces coelicolor
purified protein = substrate: CC(=O)O; experiment: purified protein

GltA, sequence (P0ABH7 whole entry): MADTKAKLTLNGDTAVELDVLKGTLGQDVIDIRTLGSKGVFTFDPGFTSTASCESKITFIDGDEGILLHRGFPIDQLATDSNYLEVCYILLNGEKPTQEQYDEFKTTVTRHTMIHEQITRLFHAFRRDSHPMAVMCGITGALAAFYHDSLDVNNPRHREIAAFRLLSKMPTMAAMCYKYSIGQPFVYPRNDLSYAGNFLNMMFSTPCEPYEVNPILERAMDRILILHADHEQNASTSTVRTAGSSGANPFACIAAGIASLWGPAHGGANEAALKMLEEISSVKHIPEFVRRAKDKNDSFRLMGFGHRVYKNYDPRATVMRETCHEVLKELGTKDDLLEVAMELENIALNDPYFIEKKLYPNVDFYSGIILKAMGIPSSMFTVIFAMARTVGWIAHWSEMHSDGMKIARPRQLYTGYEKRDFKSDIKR

Work on `O=C(O)CC(=O)C(=O)O` [Oxaloacetate] yielded a Km (Cit2) of 3.8 ± 0.4 µM and a Km (Cit1) of 130 ± 20 µM.

`O=C(O)CF` [compound 6, Fluoroacetate] was tested, and the Km (ACS (S. cattleya)) was 52000 µM and the Km (AckA (S. cattleya)) was 5700 µM.

In the case of `CC(C)(COP(=O)(O)OP(=O)(O)OC[C@H]1O[C@@H](n2cnc3c(N)ncnc32)[C@H](O)[C@@H]1OP(=O)(O)O)[C@@H](O)C(=O)NCCC(=O)NCCSC(=O)CF` [compound 9, Fluoroacetyl-CoA], the Km (Cit2) is reported as 0.98 ± 0.05 µM, the Km (GltA) is reported as 5.1 ± 0.3 µM and the Km (Cit1) is reported as 16 ± 4 µM.

Work on `CC(=O)SCCNC(=O)CCNC(=O)[C@H](O)C(C)(C)COP(=O)(O)OP(=O)(O)OC[C@H]1O[C@@H](n2cnc3c(N)ncnc32)[C@H](O)[C@@H]1OP(=O)(O)O` [compound 10, Acetyl-CoA] yielded a Km (Cit2) of 4.9 ± 0.4 µM and a Km (Cit1) of 15 ± 2 µM.

For GltA (Escherichia coli K-12), the K0.5 [1] was 170 ± 60 µM, the kcat [1] was 80 ± 10 s⁻¹ and the kcat/Km [1] was 500000 ± 200000 M⁻¹ s⁻¹.

B1: CitA (Streptomyces coelicolor A3(2)) (protein)
chain: MSDNSVVLRYGDGEYTYPVIDSTVGDKGFDIGKLRAQTGLVTLDSGYGNTAAYKSAITYLDGEAGILRYRGYPIEQLAERSSFVEVAYLLINGELPTVDELSAFKGEITQHTLLHEDVKNFYKGFPRDAHPMAMLSSVVSALSTFYQDSHNPFDERQRNLSTIRLLAKLPTIAAYAYKKSIGHPFVYPANNLGYVENFLRMTFSVPAQEYELDPTVVAALDKLLILHADHEQNCSTSTVRLVGSSQANMFASISAGINALWGPLHGGANQSVLEMLEGIRDAGGDVDSFIRKVKNKEDGVRLMGFGHRVYKNFDPRAKIIKAAAHDVLSALGKSDELLDIALKLEEHALSDDYFVSRSLYPNVDFYTGLIYRAMGFPTEMFTVLFALGRLPGWIAQWHEMIKEPGSRIGRPRQIYTGVVERDFVPVEER
Molecule B1 has a K0.5 [2] of 15.4 ± 0.8 µM, a kcat/Km [2] of 126000 ± 8000 M⁻¹ s⁻¹ and a K0.5 [3] of 47 ± 2 µM. It also gave a kcat [3] of 17.9 ± 0.4 s⁻¹ and a kcat/Km [3] of 380000 ± 10000 M⁻¹ s⁻¹.

B2: AckA (E. coli) (Escherichia coli K-12) (protein)
chain: MSSKLVLVLNCGSSSLKFAIIDAVNGEEYLSGLAECFHLPEARIKWKMDGNKQEAALGAGAAHSEALNFIVNTILAQKPELSAQLTAIGHRIVHGGEKYTSSVVIDESVIQGIKDAASFAPLHNPAHLIGIEEALKSFPQLKDKNVAVFDTAFHQTMPEESYLYALPYNLYKEHGIRRYGAHGTSHFYVTQEAAKMLNKPVEELNIITCHLGNGGSVSAIRNGKCVDTSMGLTPLEGLVMGTRSGDIDPAIIFHLHDTLGMSVDAINKLLTKESGLLGLTEVTSDCRYVEDNYATKEDAKRAMDVYCHRLAKYIGAYTALMDGRLDAVVFTGGIGENAAMVRELSLGKLGVLGFEVDHERNLAARFGKSGFINKEGTRPAVVIPTNEELVIAQDASRLTA
B2 was tested, and the Km (purified protein) was “(2.7 ± 0.2) × 10^4 μM”, the kcat (purified protein) was 1340 s⁻¹ and the kcat/Km (purified protein) was 50000 M⁻¹ s⁻¹.
